Experimental data taken from article PMC3885797 (2014).

B1: Prp31 NLS peptide (peptide)
chain: RKKRGGRRYRKMKE
modifications: Limits are the UniProt NLS motif (351-364); the exact peptide is shown only in Fig. 4B and may have different flanks
B2: CDC5L NLS3 peptide (peptide)
chain: KKRKRKR
modifications: Limits are the UniProt region required for CTNNBL1 interaction (200-206), taken as the NLS3 core; the assayed peptide is shown only in Fig. 4B and may have longer flanks

Biological target: T1, 6xHis-CTNNBL1Δ76 (human, UniProt Q8WYA6 77-563)
T1 chain: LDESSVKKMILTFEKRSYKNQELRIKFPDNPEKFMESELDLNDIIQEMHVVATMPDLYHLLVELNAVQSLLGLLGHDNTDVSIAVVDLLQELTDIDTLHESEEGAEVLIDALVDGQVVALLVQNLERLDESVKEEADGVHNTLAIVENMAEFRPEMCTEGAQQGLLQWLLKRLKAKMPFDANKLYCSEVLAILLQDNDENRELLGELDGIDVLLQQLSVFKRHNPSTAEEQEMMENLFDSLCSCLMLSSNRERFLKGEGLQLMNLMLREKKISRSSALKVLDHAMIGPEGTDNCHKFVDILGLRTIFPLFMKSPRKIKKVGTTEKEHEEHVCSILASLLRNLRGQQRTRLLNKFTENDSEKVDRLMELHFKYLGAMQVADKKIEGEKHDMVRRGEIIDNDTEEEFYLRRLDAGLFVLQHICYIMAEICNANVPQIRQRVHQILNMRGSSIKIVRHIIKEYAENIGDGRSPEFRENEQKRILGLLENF
Assay: ITC; second site

Row | Binder | Kd [µM]
1 | B1 | ~12
2 | B2 | ~4
